Assay [1] concerns the target T1, human neonatal Fc-receptor (FcRn) (human, UniProt P55899 24-297; P61769 21-119, limits assumed, biotinylated (site not stated), coupled to streptavidin sepharose).
T1 construct: also called FcRn receptor
As to the kind of experiment: FcRn affinity chromatography, anti-HER2 antibody.

The target of assay [2] is T1, human neonatal Fc-receptor (FcRn). The assay can be described thus: FcRn affinity chromatography.

T1 sequence (P55899 24-297 limits assumed, chain 1 of 2): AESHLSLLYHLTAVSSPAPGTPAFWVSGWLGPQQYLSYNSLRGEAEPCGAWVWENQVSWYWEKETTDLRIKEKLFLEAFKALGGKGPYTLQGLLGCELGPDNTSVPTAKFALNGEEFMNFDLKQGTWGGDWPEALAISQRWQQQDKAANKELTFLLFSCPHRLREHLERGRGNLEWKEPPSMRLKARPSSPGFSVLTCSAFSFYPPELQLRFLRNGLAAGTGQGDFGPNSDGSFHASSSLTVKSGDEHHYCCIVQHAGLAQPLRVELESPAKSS
T1 sequence (P61769 21-119 limits assumed, chain 2 of 2): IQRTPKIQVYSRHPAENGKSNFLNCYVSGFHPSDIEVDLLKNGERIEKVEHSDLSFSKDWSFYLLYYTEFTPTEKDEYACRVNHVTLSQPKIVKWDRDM

In the case of “anti-HER2 antibody symmetrically modified with E258H”, in assay [1], the retention time was determined as 45.6 min.

As for “anti-HER2 antibody symmetrically modified with E430H”, in assay [1], the retention time is 46.4 min.

In turn, “anti-HER2 antibody symmetrically modified with K288E” had a retention time in assay [1] of 45.2 min.

As to “anti-HER2 antibody symmetrically modified with K290H”, the retention time in assay [1] came out at 46.2 min.

In assay [1], “anti-HER2 antibody symmetrically modified with K317H” came in with a retention time of 46.3 min.

With “anti-HER2 antibody symmetrically modified with L309H”, the retention time in assay [1] is 45.5 min.

“anti-HER2 antibody symmetrically modified with N434H” had a retention time in assay [1] of 52 min.

“anti-HER2 antibody symmetrically modified with Q311H”: the retention time in assay [1] is 46.3 min.

The molecule “anti-HER2 antibody symmetrically modified with R255D” displayed a retention time in assay [1] of 41.4 min.

The molecule “anti-HER2 antibody symmetrically modified with T256H” yielded a retention time in assay [1] of 46 min.

In the case of anti-HER2 antibody, wild-type, the retention time in assay [1] was 46.3 min.

B1: IgG1 Fc-region with L234A/L235A/P329G and H310A/H433A/Y436A in both Fc-region polypeptides (other)
chain: DKTHTCPPCPAPEAAGGPSVFLFPPKPKDTLMISRTPEVTCVVVDVSHEDPEVKFNWYVDGVEVHNAKTKPREEQYNSTYRVVSVLTVLAQDWLNGKEYKCKVSNKALGAPIEKTISKAKGQPREPQVYTLPPSRDELTKNQVSLTCLVKGFYPSDIAVEWESNGQPENNYKTTPPVLDSDGSFFLYSKLTVDKSRWQQGNVFSCSVMHEALANHATQKSLSLSPGK
notes: As m2; Positions are EU numbers, not positions on the entry; also called HHY-AAA mutation
For the molecule B1, in assay [2], the binding result is on record as “no binding (tested: retention time below 3 minutes)”.

B2: IgG1 Fc-region with L234A/L235A/P329G and I253A/H435A in both Fc-region polypeptides (other)
chain: DKTHTCPPCPAPEAAGGPSVFLFPPKPKDTLMASRTPEVTCVVVDVSHEDPEVKFNWYVDGVEVHNAKTKPREEQYNSTYRVVSVLTVLHQDWLNGKEYKCKVSNKALGAPIEKTISKAKGQPREPQVYTLPPSRDELTKNQVSLTCLVKGFYPSDIAVEWESNGQPENNYKTTPPVLDSDGSFFLYSKLTVDKSRWQQGNVFSCSVMHEALHNAYTQKSLSLSPGK
notes: As m2; Positions are EU numbers, not positions on the entry
Turning to B2, the binding result in assay [2] was “no binding (tested: retention time below 3 minutes)”.

B3: IgG1 Fc-region with L234A/L235A/P329G and H310A/H435A in both Fc-region polypeptides (other)
chain: DKTHTCPPCPAPEAAGGPSVFLFPPKPKDTLMISRTPEVTCVVVDVSHEDPEVKFNWYVDGVEVHNAKTKPREEQYNSTYRVVSVLTVLAQDWLNGKEYKCKVSNKALGAPIEKTISKAKGQPREPQVYTLPPSRDELTKNQVSLTCLVKGFYPSDIAVEWESNGQPENNYKTTPPVLDSDGSFFLYSKLTVDKSRWQQGNVFSCSVMHEALHNAYTQKSLSLSPGK
notes: as for B2
B3: the binding result in assay [2] is “no binding (tested: retention time below 3 minutes)”.

B4: IgG1 Fc-region with L234A/L235A/P329G and H310A/Y436A in both Fc-region polypeptides (other)
chain: DKTHTCPPCPAPEAAGGPSVFLFPPKPKDTLMISRTPEVTCVVVDVSHEDPEVKFNWYVDGVEVHNAKTKPREEQYNSTYRVVSVLTVLAQDWLNGKEYKCKVSNKALGAPIEKTISKAKGQPREPQVYTLPPSRDELTKNQVSLTCLVKGFYPSDIAVEWESNGQPENNYKTTPPVLDSDGSFFLYSKLTVDKSRWQQGNVFSCSVMHEALHNHATQKSLSLSPGK
notes: as for B2
B4: the binding result in assay [2] is listed as “no binding (tested: retention time below 3 minutes)”.

B5: IgG1 Fc-region with L234A/L235A/P329G and I253A/H310A/H435A in both Fc-region polypeptides (other)
chain: DKTHTCPPCPAPEAAGGPSVFLFPPKPKDTLMASRTPEVTCVVVDVSHEDPEVKFNWYVDGVEVHNAKTKPREEQYNSTYRVVSVLTVLAQDWLNGKEYKCKVSNKALGAPIEKTISKAKGQPREPQVYTLPPSRDELTKNQVSLTCLVKGFYPSDIAVEWESNGQPENNYKTTPPVLDSDGSFFLYSKLTVDKSRWQQGNVFSCSVMHEALHNAYTQKSLSLSPGK
notes: As m2; Positions are EU numbers, not positions on the entry; also called IHH-AAA mutation
With B5, in assay [2], the binding result is listed as “no binding (tested: retention time below 3 minutes)”.

B6: IgG1 Fc-region with L234A/L235A/P329G and I253A/H310A in both Fc-region polypeptides (other)
chain: DKTHTCPPCPAPEAAGGPSVFLFPPKPKDTLMASRTPEVTCVVVDVSHEDPEVKFNWYVDGVEVHNAKTKPREEQYNSTYRVVSVLTVLAQDWLNGKEYKCKVSNKALGAPIEKTISKAKGQPREPQVYTLPPSRDELTKNQVSLTCLVKGFYPSDIAVEWESNGQPENNYKTTPPVLDSDGSFFLYSKLTVDKSRWQQGNVFSCSVMHEALHNHYTQKSLSLSPGK
notes: as for B2
For the molecule B6, the binding result in assay [2] was “no binding (tested: retention time below 3 minutes)”.

Values taken from patent US20170342167A1 (Hoffmann-La Roche, published 2017).
